What was measured:
[1] = target: C. elegans UBR4 (C. elegans); assay: not stated; molecular weight of the purified C. elegans UBR4 complex (Fig. S13A)
human UBR4 (human) = human UBR4 (human) (UniProt Q5T4S7); assay: mass photometry; isolated human UBR4/KCMF1/CALM1 complex, co-expressed in insect cells and purified via a tag on UBR4

Sequence of human UBR4, Q5T4S7 1-5183 (enzyme) (Q5T4S7 whole entry): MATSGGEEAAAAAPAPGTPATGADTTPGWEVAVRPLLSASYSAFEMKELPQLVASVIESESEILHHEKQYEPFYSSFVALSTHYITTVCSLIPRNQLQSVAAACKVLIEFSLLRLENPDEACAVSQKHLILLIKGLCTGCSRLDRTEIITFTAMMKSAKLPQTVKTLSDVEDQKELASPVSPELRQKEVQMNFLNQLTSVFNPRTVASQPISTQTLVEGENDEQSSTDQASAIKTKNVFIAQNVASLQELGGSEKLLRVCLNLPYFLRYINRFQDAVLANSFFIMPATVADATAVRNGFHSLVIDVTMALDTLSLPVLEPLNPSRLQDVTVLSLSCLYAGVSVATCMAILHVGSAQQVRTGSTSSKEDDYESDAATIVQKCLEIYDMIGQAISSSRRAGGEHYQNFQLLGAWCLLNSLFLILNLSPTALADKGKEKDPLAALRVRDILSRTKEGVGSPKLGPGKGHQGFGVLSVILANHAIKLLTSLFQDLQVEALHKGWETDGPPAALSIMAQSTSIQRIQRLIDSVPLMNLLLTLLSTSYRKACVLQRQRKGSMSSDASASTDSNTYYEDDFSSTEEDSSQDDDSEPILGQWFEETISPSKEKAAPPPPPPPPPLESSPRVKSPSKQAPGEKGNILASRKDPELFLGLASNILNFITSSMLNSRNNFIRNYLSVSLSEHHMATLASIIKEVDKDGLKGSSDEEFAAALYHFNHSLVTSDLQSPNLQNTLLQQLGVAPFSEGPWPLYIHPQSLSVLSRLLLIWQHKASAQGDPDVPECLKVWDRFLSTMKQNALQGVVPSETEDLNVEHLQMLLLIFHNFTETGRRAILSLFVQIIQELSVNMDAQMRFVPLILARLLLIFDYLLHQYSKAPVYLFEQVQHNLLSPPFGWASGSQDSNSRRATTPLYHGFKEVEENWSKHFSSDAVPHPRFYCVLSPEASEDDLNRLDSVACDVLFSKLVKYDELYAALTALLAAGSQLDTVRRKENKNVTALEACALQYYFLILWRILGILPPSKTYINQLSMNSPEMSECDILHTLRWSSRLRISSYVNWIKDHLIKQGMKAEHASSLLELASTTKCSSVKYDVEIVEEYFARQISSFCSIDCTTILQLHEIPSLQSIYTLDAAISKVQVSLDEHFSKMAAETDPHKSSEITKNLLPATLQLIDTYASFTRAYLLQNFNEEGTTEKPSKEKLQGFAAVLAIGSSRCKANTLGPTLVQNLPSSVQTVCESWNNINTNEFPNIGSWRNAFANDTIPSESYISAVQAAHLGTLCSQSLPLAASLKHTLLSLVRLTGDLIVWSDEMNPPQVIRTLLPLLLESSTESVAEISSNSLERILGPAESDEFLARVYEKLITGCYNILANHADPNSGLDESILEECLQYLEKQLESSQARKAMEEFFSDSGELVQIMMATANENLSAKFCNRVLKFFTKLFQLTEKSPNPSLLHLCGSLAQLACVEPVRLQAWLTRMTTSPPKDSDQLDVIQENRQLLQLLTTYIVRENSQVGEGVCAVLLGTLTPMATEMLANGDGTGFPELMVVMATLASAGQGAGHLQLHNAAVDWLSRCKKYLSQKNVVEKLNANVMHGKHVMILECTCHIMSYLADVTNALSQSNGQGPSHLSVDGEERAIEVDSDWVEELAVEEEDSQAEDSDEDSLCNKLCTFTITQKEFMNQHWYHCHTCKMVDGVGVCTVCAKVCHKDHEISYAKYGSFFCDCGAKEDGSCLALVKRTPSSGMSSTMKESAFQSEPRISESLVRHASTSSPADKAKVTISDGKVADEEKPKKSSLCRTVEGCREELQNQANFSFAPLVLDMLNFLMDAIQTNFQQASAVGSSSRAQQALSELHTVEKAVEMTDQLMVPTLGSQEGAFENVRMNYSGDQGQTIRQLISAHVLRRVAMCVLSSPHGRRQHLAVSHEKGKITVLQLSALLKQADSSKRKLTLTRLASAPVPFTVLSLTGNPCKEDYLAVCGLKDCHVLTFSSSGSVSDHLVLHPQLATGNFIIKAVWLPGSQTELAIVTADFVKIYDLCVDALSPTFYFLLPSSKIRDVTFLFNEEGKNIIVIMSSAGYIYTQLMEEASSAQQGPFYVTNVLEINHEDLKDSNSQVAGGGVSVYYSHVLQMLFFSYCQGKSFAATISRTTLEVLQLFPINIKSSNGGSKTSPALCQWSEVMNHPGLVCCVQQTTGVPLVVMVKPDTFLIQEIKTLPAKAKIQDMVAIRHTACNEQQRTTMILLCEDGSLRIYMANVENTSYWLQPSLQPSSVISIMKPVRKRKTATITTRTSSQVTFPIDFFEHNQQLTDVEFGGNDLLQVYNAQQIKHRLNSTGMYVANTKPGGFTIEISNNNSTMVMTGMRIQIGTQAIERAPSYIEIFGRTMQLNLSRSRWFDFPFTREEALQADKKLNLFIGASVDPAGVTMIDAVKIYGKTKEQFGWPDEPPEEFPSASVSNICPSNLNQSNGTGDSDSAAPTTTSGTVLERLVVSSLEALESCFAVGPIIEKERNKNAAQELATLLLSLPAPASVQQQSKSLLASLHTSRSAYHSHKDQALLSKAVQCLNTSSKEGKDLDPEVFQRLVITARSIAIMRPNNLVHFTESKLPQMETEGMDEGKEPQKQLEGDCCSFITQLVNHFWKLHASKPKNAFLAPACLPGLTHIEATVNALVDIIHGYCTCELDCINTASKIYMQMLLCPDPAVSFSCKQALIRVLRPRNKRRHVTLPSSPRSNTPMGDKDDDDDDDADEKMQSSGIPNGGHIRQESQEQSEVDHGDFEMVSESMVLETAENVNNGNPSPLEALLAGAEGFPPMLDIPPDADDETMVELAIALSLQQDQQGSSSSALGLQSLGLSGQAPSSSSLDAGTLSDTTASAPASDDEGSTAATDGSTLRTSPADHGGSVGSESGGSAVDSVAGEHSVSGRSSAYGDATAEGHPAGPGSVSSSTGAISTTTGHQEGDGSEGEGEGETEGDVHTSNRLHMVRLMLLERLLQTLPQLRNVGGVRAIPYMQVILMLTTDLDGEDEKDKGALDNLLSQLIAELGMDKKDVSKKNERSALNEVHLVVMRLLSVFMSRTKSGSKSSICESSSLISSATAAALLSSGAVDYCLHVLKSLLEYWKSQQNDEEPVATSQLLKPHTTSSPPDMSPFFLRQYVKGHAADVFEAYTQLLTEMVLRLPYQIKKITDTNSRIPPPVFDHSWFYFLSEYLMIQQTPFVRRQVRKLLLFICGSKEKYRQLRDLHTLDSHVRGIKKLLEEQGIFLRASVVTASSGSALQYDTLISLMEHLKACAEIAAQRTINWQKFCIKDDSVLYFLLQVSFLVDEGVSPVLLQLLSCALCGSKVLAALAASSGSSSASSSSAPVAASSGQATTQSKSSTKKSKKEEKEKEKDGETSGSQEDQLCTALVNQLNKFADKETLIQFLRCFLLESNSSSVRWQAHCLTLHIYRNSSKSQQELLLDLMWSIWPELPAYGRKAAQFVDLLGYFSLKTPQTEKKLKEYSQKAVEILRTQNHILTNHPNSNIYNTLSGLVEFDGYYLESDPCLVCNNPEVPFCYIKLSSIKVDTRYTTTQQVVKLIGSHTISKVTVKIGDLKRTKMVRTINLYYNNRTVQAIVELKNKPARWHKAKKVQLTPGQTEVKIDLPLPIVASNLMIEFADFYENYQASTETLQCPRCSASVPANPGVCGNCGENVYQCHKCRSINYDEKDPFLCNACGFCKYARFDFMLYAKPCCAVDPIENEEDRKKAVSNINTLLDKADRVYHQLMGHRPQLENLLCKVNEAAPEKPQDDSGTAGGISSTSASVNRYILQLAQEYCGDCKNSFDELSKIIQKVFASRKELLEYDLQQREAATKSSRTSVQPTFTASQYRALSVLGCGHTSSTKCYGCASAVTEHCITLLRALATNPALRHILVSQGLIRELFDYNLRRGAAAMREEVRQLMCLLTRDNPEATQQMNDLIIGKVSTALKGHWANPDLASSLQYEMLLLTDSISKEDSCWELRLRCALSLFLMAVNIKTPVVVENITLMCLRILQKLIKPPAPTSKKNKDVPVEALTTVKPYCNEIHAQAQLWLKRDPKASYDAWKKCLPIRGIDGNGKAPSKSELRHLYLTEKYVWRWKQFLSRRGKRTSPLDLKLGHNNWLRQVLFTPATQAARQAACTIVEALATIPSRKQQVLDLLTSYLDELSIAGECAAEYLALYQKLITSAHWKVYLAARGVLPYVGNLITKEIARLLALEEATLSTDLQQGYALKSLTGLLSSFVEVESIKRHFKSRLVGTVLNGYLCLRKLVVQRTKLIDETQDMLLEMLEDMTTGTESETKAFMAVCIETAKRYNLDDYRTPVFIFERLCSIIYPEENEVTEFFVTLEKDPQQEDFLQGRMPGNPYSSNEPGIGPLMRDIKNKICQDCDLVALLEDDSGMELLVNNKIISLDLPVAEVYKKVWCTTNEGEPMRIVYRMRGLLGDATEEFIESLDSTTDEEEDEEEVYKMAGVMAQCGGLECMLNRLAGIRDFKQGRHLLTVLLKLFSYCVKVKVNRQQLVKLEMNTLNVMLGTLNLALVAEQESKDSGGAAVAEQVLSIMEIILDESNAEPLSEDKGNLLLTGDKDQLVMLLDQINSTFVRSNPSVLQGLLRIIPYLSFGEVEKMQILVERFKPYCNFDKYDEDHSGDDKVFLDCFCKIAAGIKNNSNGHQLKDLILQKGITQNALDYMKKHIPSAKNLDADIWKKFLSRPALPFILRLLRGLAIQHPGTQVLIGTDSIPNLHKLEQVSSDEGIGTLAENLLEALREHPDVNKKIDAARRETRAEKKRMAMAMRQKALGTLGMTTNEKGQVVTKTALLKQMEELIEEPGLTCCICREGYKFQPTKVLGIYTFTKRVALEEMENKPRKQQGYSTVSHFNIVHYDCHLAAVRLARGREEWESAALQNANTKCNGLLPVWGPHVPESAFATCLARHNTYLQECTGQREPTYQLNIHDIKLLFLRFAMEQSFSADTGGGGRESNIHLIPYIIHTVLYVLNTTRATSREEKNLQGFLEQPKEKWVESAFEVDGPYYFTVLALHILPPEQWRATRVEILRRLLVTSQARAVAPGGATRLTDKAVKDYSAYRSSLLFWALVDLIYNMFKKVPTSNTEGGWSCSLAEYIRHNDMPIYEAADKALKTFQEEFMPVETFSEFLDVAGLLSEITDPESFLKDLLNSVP

stoichiometry N [1] | stoichiometry N (human UBR4 (human)) | Substance
2 | – | C. elegans UBR4, A0A0S4XR36 1-4218
– | 2 | human UBR4, Q5T4S7 1-5183 (enzyme)

Source: publication PMC7618180
